Assay results published in PMC4987395.

Molecular target: Arabidopsis thaliana plasmodesmata-located protein 1 (PDLP1) fused to RFP (Arabidopsis thaliana) (UniProt Q8GXV7)
Experiment: FRET or BRET; FRET-FLIM: GFP on the MP as donor, RFP on PDLP1 as acceptor; co-expressed by agroinfiltration in N. benthamiana leaves, measured at spots in plasmodesmata; donor fluorescence lifetime by time-correlated single-photon counting

Sequence of UniProt Q8GXV7 (Q8GXV7 22-303): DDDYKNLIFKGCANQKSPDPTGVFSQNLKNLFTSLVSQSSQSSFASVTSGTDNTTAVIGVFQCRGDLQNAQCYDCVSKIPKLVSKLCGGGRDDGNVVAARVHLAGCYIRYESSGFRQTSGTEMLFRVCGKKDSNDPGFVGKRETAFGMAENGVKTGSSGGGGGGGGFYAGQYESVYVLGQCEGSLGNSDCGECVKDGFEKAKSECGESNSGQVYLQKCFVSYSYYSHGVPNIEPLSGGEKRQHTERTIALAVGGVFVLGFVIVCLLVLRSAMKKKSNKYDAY

Row | Substance | FRET efficiency
1 | cowpea mosaic virus (CPMV) movement protein (48K) fused at its C-terminus to GFP (natural protein) | 7.5%
2 | grapevine fanleaf virus (GFLV) 2B movement protein with GFP fused at its N-terminus (natural protein) | 6.7%
